± gives the uncertainty stated by the source.
Assay: self-splicing fitness, log relative to wild type (ln ratio); higher = more splicing; Tetrahymena group I intron in knt gene, E. coli kanamycin selection, DiMSum; sequences stand for … in CUCUCU…GGAGGGAAAAGUUAUCAGGCAUGCACCUGGUAGCUAGUCUUUAAACCAAUAGAUUGCAUCGGUUUAAAAGGCAAGACCGUCAAAUUGCGGGAAAGGGGUCAACAGCCGUUCAGUACCAAGUCUCAGGGGAAACUUUGAGAUGGCCUUGCAAAGGGUAUGGUAAUAAGCUGACGGACAUGGUCCUAACCACGCAGCCAAGUCCUAAGUCAACAGAUCUUCUGUUGAUAUGGAUGCAGUUCACAGACUAAAUGUCGGUCGGGGAAGAUGUAUUCUUCUCAUAAGAUAUAGUCGGACCUCUCCUUAAUGGGAGCUAGCGGAUGAAGUGAUGCAACACUGGAGCCGCUGGGAACUAAUUUGUAUGCGAAAGUAUAUUGAUUAGUUUUGGAGUACUCGUGGUCG
Summary of the method: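 Colonies from six replicate transformations of E. coli BL21(DE3) were pooled and amplicon-sequenced on an Illumina HiSeq 2500. The library placed an intron with all eight P1ex-region nucleotides randomised inside the knt kanamycin-resistance gene on pET-22b(+), and cells grew overnight at 37°C or 30°C on LB agar with or without 25 μg/mL kanamycin (plus 100 μg/mL carbenicillin, 50 μM IPTG, 0.2% rhamnose). Fitness is the DiMSum error-weighted combination of wild-type-normalised replicate fold changes, kanamycin versus none.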

Sequence | self-splicing fitness (ln) (30 °C) | self-splicing fitness (ln) (37 °C)
GACUAGCAAUAUUACGUCAU | -2.73 ± 0.17 | -1.1 ± 0.17
GACUAGCAAUAUUACGUCCG | – | -1.5 ± 0.31
GACUAGCAAUAUUACGUGAG | -2.07 ± 0.1 | -1.54 ± 0.14
GACUAGCAAUAUUACGUGCC | -1.75 ± 0.12 | -1.58 ± 0.18
GACUAGCAAUAUUACGUGCG | -1.3 ± 0.073 | -0.236 ± 0.091
GACUAGCAAUAUUACGUGGG | -3.35 ± 0.13 | -1.96 ± 0.098
GACUAGCAAUAUUACGUUGG | -2.85 ± 0.22 | -2.42 ± 0.39
GAGAAGCAAUAUUACGAAAC | -2.29 ± 0.36 | -1.71 ± 0.48
GAGAAGCAAUAUUACGCAAC | -1.48 ± 0.14 | -2.11 ± 0.26
GAGAAGCAAUAUUACGCGCU | -2.03 ± 0.13 | -1.49 ± 0.13
GAGAAGCAAUAUUACGGCAA | -0.843 ± 0.084 | 0.00427 ± 0.11
GAGAAGCAAUAUUACGGCCU | -0.28 ± 0.07 | 0.2 ± 0.089
GAGAAGCAAUAUUACGGCUU | -3.58 ± 0.33 | -1.75 ± 0.24
GAGAAGCAAUAUUACGGGUU | -1.88 ± 0.11 | -1.87 ± 0.16
GAGAAGCAAUAUUACGGUGA | -1.88 ± 0.15 | -0.755 ± 0.15
GAGAAGCAAUAUUACGUAGU | -2.89 ± 0.094 | -1.39 ± 0.097
GAGAAGCAAUAUUACGUGAA | -1 ± 0.1 | -1.23 ± 0.17
GAGAAGCAAUAUUACGUGCU | -2.51 ± 0.21 | -0.848 ± 0.17
GAGAAGCAAUAUUACGUUAG | -2.54 ± 0.19 | -2.08 ± 0.19
GAGCAGCAAUAUUACGAAGA | -2.69 ± 0.45 | -1.14 ± 0.27
GAGCAGCAAUAUUACGAAGC | -3.93 ± 0.25 | -2.21 ± 0.15
GAGCAGCAAUAUUACGACAA | -1.41 ± 0.3 | -2.31 ± 0.2
GAGCAGCAAUAUUACGACCC | 0.0587 ± 0.081 | -0.0685 ± 0.098
GAGCAGCAAUAUUACGACUA | -0.925 ± 0.097 | 0.275 ± 0.11
GAGCAGCAAUAUUACGAGCG | -2.3 ± 0.092 | -1.11 ± 0.11
GAGCAGCAAUAUUACGAGGA | -2.48 ± 0.17 | -2.89 ± 0.22
GAGCAGCAAUAUUACGAUUG | -2.17 ± 0.083 | -2.41 ± 0.17

Sequence | self-splicing fitness (ln) (30 °C) | self-splicing fitness (ln) (37 °C)
GAGCAGCAAUAUUACGCAUA | -1.11 ± 0.099 | -0.606 ± 0.14
GAGCAGCAAUAUUACGCGUG | -1.92 ± 0.15 | -1.66 ± 0.18
GAGCAGCAAUAUUACGCUCU | -3.46 ± 0.28 | –
GAGCAGCAAUAUUACGCUGA | -2.8 ± 0.19 | -2.13 ± 0.2
GAGCAGCAAUAUUACGGAAG | -3.65 ± 0.21 | -3.24 ± 0.26
GAGCAGCAAUAUUACGGCAU | -0.308 ± 0.081 | -0.549 ± 0.094
GAGCAGCAAUAUUACGGCUA | -0.634 ± 0.1 | -0.0591 ± 0.15
GAGCAGCAAUAUUACGGGUC | -3.07 ± 0.18 | -1.91 ± 0.17
GAGCAGCAAUAUUACGGUGU | -2.84 ± 0.093 | -1.56 ± 0.09
GAGCAGCAAUAUUACGUAAA | -1.89 ± 0.14 | -1.13 ± 0.14
GAGCAGCAAUAUUACGUACC | -0.46 ± 0.12 | -0.225 ± 0.14
GAGCAGCAAUAUUACGUCGG | -4.09 ± 0.31 | -3.07 ± 0.28
GAGCAGCAAUAUUACGUGAG | -2.06 ± 0.069 | -0.264 ± 0.07
GAGCAGCAAUAUUACGUUGU | -3.37 ± 0.14 | -2.16 ± 0.15
GAGCAGCAAUAUUACGUUUC | -3.37 ± 0.14 | -2.2 ± 0.22
GAGGAGCAAUAUUACGAAGA | -2.19 ± 0.24 | -1.95 ± 0.32
GAGGAGCAAUAUUACGACCU | -2.45 ± 0.41 | –
GAGGAGCAAUAUUACGAUCC | -1.49 ± 0.31 | -1.12 ± 0.27
GAGGAGCAAUAUUACGCCAA | – | -1.6 ± 0.48
GAGGAGCAAUAUUACGCCAU | -3.46 ± 0.47 | -2.37 ± 0.41
GAGGAGCAAUAUUACGCCUA | -1.68 ± 0.27 | -0.955 ± 0.16
GAGGAGCAAUAUUACGCGUU | -3.99 ± 0.39 | -2.2 ± 0.36
GAGGAGCAAUAUUACGCUCC | – | -0.714 ± 0.48
GAGGAGCAAUAUUACGCUGA | -2.84 ± 0.49 | -2.07 ± 0.34
GAGGAGCAAUAUUACGGACG | -3.42 ± 0.36 | -0.785 ± 0.49
GAGGAGCAAUAUUACGGACU | -1.49 ± 0.14 | -1.22 ± 0.28
GAGGAGCAAUAUUACGGAGU | – | -2.57 ± 0.34

Sequence | self-splicing fitness (ln) (30 °C) | self-splicing fitness (ln) (37 °C)
GAGGAGCAAUAUUACGGAUG | -3.77 ± 0.27 | -2.48 ± 0.24
GAGGAGCAAUAUUACGGGCC | -2.4 ± 0.4 | –
GAGGAGCAAUAUUACGUACA | -3.14 ± 0.32 | -0.612 ± 0.2
GAGGAGCAAUAUUACGUGCA | -3.41 ± 0.34 | -1.31 ± 0.17
GAGGAGCAAUAUUACGUGCU | -4.62 ± 0.42 | -2.32 ± 0.21
GAGGAGCAAUAUUACGUUCG | -1.89 ± 0.2 | -1.27 ± 0.23
GAGGAGCAAUAUUACGUUCU | -2.2 ± 0.2 | -2.4 ± 0.33
GAGGAGCAAUAUUACGUUGG | – | -1.46 ± 0.42
GAGUAGCAAUAUUACGACGC | -0.488 ± 0.12 | 0.137 ± 0.14
GAGUAGCAAUAUUACGAGCA | -2.06 ± 0.21 | 0.532 ± 0.14
GAGUAGCAAUAUUACGAGGC | – | -2.86 ± 0.44
GAGUAGCAAUAUUACGAUAC | -2.31 ± 0.21 | -2.92 ± 0.24
GAGUAGCAAUAUUACGCAGA | -3 ± 0.26 | -2.41 ± 0.31
GAGUAGCAAUAUUACGCCGC | -2.89 ± 0.25 | -1.29 ± 0.33
GAGUAGCAAUAUUACGCCGG | -1.99 ± 0.35 | –
GAGUAGCAAUAUUACGCCGU | – | -1.08 ± 0.27
GAGUAGCAAUAUUACGCGAU | -2.26 ± 0.21 | -2.21 ± 0.39
GAGUAGCAAUAUUACGCGCA | -1.93 ± 0.15 | -0.701 ± 0.2
GAGUAGCAAUAUUACGCGUU | -2.44 ± 0.095 | -0.8 ± 0.09
GAGUAGCAAUAUUACGGAAA | -3.15 ± 0.17 | -2.03 ± 0.12
GAGUAGCAAUAUUACGGAUC | -0.928 ± 0.092 | -0.167 ± 0.12
GAGUAGCAAUAUUACGGCCA | -1.95 ± 0.18 | 0.281 ± 0.26
GAGUAGCAAUAUUACGGCCG | -1.24 ± 0.15 | -0.0588 ± 0.23
GAGUAGCAAUAUUACGGCGG | -4.56 ± 0.36 | -2.02 ± 0.21
GAGUAGCAAUAUUACGGUAC | -2.69 ± 0.37 | -2.01 ± 0.33

— the supplement of paper PMC7877785
